The target of the test is 92BR020 SOSIP gp140 trimer (stabilized pre-fusion HIV-1 envelope glycoprotein, SOSIP v.7) (HIV-1 subtype B strain 92BR020). The test is described as follows: negative-stain electron microscopy; SOSIP proteins diluted in Tris-buffered saline to ~0.02 mg/mL, adsorbed onto carbon-coated copper grids, stained with 2% uranyl formate; 2D classification compared with published well-folded SOSIP trimers.

Our source for the stoichiometry N values is PMC11634010.

Substance “92BR020 SOSIP gp140 trimer (stabilized pre-fusion HIV-1 envelope glycoprotein, SOSIP v.7) (natural protein)” showed a stoichiometry N of 3.

As usually defined, the stoichiometry N is a count of units in the complex or per binding partner.
